The target of this test is leptin receptor (OBR-2K), fused to luciferase (OBR-2K Rluc) or to YFP (OBR-2K YFP) (UniProt P48357). Nature of the test: FRET or BRET; HEK293T cells co-transfected with OBR-2K Rluc (donor) and OBR-2K YFP (acceptor); pre-treated with homocysteine (1-10 mM) for 4 h, then leptin (10 nM) for 30 min; coelenterazine h 20 uM; result in mBRET units. (In BRET a luciferase serves as donor, and the signal depends on an acceptor being close.)

Regarding “leptin receptor (OBR-2K), fused to luciferase (OBR-2K Rluc) or to YFP (OBR-2K YFP) (from UniProt P48357 22-1165)”, the fold increase in BRET signal upon leptin stimulation is 3 fold.

These data come from PMC9746958.
